Results on 7 substances are retold here after US20230295277A1.

Holding throughout (test): cell-based or functional assay
Test [1] has as its target full-length subtype B consensus gp160 expressed on HEK293 cells (vector pConBgp160-opt) (HIV-1 subtype B (consensus)).
The target in test [2] is subtype C consensus gp160 protein expressed on HEK293 cells (vector pConCgp160-opt) (HIV-1 subtype C (consensus)).
Test [3] addresses CD19 on REH cells (human) (UniProt P15391).
Sequence of UniProt P15391 (P15391 20-556): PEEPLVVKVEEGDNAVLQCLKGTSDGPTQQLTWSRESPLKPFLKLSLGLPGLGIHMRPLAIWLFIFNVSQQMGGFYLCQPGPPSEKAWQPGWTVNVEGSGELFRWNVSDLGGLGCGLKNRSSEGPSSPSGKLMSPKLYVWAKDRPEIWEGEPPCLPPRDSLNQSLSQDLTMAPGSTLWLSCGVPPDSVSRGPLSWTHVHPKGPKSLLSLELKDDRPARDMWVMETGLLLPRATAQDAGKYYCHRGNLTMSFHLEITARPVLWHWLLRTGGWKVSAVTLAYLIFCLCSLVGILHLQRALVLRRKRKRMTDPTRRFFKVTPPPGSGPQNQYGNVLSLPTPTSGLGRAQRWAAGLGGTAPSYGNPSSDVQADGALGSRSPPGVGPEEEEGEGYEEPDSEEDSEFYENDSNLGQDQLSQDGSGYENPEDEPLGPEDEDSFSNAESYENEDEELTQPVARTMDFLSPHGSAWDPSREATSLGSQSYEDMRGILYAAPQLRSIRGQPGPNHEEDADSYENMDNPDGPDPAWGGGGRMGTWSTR

“2G12-based anti-gp160 CAR (pFUW-2G12-CD28-CD3ζ) on NK-92MI cells (from UniProt P01732 138-182; P10747 153-220; P20963 52-164)” yielded a percentage of gp160+ cells killed by 2G12 CAR-NK cells, E:T 25:1 in test [1] of 60%.
In test [2], DNP-conjugated 3BNC117 (antibody) had a percentage of gp160+ cells killed by universal CAR-NK cells of 19.7% and a percentage of subtype C gp160+ cells lysed by anti-DNP CAR-NK cells, 8 h, E:T 25:1, adaptor 2 nM of 20%. Also, in test [1], the IFN-γ production by anti-DNP CAR-NK cells (ELISA), adaptor 2 nM, against the isotype control amounted to 2 fold; the percentage of gp160+ cells killed by anti-DNP CAR-NK cells, flow cytometry, 8 h, E:T 25:1, adaptor 2 nM was found to be 50%; the percentage of gp160+ cells killed by universal CAR-NK cells amounted to 45.5%.
Regarding DNP-conjugated 10-1074 (antibody), in test [2], the percentage of gp160+ cells killed by universal CAR-NK cells turned out to be 29.8% and the percentage of subtype C gp160+ cells killed by anti-DNP CAR-NK cells, 8 h, E:T 25:1, adaptor 2 nM came out at 30%. In test [1], this substance displayed a percentage of gp160+ cells killed by anti-DNP CAR-NK cells, flow cytometry, 8 h, E:T 25:1, adaptor 2 nM of 50%; a percentage of gp160+ cells killed by anti-DNP CAR-T cells, E/T 1:1, 48 h, adaptor 10 nM of 29%; a percentage of gp160+ cells killed by universal CAR-NK cells of 53.1%.
In the case of DNP-conjugated PG9 (antibody), the percentage of subtype C gp160+ cells killed by anti-DNP CAR-NK cells, 8 h, E:T 25:1, adaptor 2 nM in test [2] was found to be 30%. The percentage of gp160+ cells killed by anti-DNP CAR-NK cells, flow cytometry, 8 h, E:T 25:1, adaptor 2 nM in test [1] was determined as 50%.
In turn, DNP-conjugated VRC01 (antibody) yielded a percentage of subtype C gp160+ cells lysed by anti-DNP CAR-NK cells, 8 h, E:T 25:1, adaptor 2 nM in test [2] of 20%. This substance also returned a percentage of gp160+ cells killed by anti-DNP CAR-NK cells, flow cytometry, 8 h, E:T 25:1, adaptor 2 nM in test [1] of 28.5%.
For “DNP-conjugated anti-CD19 antibody (clone FMC63)”, in test [3], the percentage of REH cells killed by anti-DNP CAR-NK cells, flow cytometry, E:T 25:1, overnight, adaptor 50 nM is 59% and the percentage of REH cells remaining alive, flow cytometry, E:T 25:1, overnight, adaptor 50 nM worked out at 41%.
For the substance DNP-conjugated antibody 2G12, in test [1], the adaptor concentration at which IFN-γ production of CAR-NK cells reached a plateau was above 2 nM; the percentage of gp160+ cells killed by anti-DNP CAR-NK cells, flow cytometry, 8 h, E:T 25:1, adaptor 2 nM was found to be 50%; the percentage of gp160+ cells killed by anti-DNP CAR-T cells, E/T 1:1, 48 h, adaptor 10 nM stood at 34%; the percentage of gp160+ cells killed by universal (anti-DNP) CAR-NK cells with DNP-conjugated 2G12, E:T 25:1 is 50%.
